Values quoted from earlier work, collected in article PMC8268101.

Molecular target: C1q (Homo sapiens) (UniProt P02745)
Experiment: SPR

Chain of UniProt P02745 (P02745 23-245, chain 1 of 3): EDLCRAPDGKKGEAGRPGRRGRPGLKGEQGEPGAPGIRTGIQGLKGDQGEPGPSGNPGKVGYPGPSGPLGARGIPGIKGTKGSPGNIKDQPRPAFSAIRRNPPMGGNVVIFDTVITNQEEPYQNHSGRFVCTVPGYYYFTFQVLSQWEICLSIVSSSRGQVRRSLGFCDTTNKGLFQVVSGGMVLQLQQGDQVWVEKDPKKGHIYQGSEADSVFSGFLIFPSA
Chain of UniProt P02745 (P02746 28-253, chain 2 of 3, further chain): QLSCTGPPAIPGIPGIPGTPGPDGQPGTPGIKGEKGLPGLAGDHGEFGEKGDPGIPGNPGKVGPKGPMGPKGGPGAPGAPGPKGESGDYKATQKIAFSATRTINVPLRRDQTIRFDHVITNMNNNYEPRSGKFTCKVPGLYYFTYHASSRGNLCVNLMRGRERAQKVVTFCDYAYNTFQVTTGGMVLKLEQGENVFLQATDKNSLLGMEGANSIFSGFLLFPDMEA
Chain of UniProt P02745 (P02747 29-245, chain 3 of 3, further chain): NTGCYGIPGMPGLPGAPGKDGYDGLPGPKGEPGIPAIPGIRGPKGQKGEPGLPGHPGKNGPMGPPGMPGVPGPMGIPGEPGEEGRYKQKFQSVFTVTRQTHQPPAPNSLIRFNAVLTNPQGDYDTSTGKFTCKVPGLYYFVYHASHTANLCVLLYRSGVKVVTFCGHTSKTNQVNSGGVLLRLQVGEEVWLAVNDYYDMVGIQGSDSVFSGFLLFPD

Kd: 5.6 µM
Substance: RAGE (from UniProt Q15109)
